Holding throughout (assay type): biochemical
The nature of series [1]: HTP-analysis of supernatants pretreated with base (MUGal hydrolysis). To be noted: for Relative Activity of GLA Variants After Challenge at pH 7.5: activity of the variant/activity of Rd7BB (SEQ ID NO: 44); for Relative Activity of GLA Variants After Challenge at pH 7.6: activity of the variant/activity of Rd2BB (SEQ ID NO: 10), yeast culture supernatant. In short, it runs like this:
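Fluorescence of released 4-MU (Ex 355 nm, Em 448 nm) after carbonate quench reports MUGal hydrolysis by GLA variants secreted from INVSc1 yeast. Before the acidic (pH 4.3-4.8) 30-180 min reaction at 37° C, supernatants had been pre-incubated at pH 7.0-9.7 for 1-18 h at 37° C.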

Series [2] in a line: HTP-analysis of supernatants pretreated with acid (MUGal hydrolysis). Particulars: for Relative Activity of GLA Variants After Challenge at pH 3.5: activity of the variant/activity of Rd7BB (SEQ ID NO: 44); for Relative Activity of GLA Variants After Challenge at pH 4.2: activity of the variant/activity of Rd2BB (SEQ ID NO: 10), yeast culture supernatant. The essentials: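 Yeast INVSc1 supernatant, GLA variants; acid challenge: McIlvaine pH 3.3-4.3, 37° C., 1-3 h. Assay: MUGal in McIlvaine pH 4.8 plus citrate pH 4.3, 37° C., 30-180 min, Na2CO3 stop, Ex 355/Em 448 nm.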

The nature of series [3]: HTP-analysis of yeast culture supernatants, no challenge (MUGal hydrolysis). In short, it runs like this: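 Activity read as 4-methylumbelliferyl α-D-galactopyranoside hydrolysis: fluorescence (355/448 nm) after sodium carbonate stop, following 30-180 min at 37° C with 2 mM MUGal stock at pH 4.6–4.8. Enzyme source is unchallenged culture supernatant of INVSc1 yeast expressing GLA variants, grown 66-84 h at 30° C.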

A short description of series [4]: HTP-analysis of supernatants pretreated with bovine serum (MUGal hydrolysis). To be noted: activity of the variant/activity of Rd2BB (SEQ ID NO: 10), yeast culture supernatant. The procedure: Yeast (INVSc1) cells transformed with vectors expressing GLA and GLA variants using the lithium acetate method were selected on SD-Ura agar plates. After 72 h incubation at 30° C. colonies were placed into the wells of Axygen® 1.1 ml 96-well deep well plates filled with 200 μl/well SD-Ura broth (2 g/L SD-Ura, 6.8 g/L yeast nitrogen base without amino acids [Sigma Aldrich]), 3.06 g/L sodium dihydrogen phosphate, 0.804 g/L disodium hydrogen phosphate, pH 6.0 supplemented with 6% glucose. The cells were allowed to grow for 20-24 hours in a Kuhner shaker (250 rpm, 30° C., and 85% relative humidity). Overnight culture samples (20 μL) were transferred into Corning Costar® 96-well deep plates filled with 380 µL of SD-ura broth supplemented with 2% glucose. The plates were incubated for 66-84 h in a Kuhner shaker (250 rpm, 30° C., and 85% relative humidity). The cells were then pelleted (4000 rpm×20 min), and the supernatants isolated and stored at 4° C. prior to analysis.
GLA variants were challenged with bovine serum to simulate the conditions the variants encounter following infusion into a patient. First, 20 μL of yeast culture supernatant and 80 μL, of bovine serum were added to the wells of a 96-well round bottom plate. The plates were sealed and incubated at 37° C. for 1 h. For the assay, 50 μL of serum-challenged sample was mixed with 25 μL, of 1 M citrate buffer pH 4.3 and 25 μL, of 4 mM MUGal in McIlvaine buffer pH 4.8. The reactions were mixed briefly and incubated at 37° C. for 180 minutes, prior to quenching with 100 μL, of 1 M sodium carbonate. Hydrolysis was analyzed using a SpectraMax® M2 microplate reader monitoring fluorescence (Ex. 355 nm, Em. 448 nm).

Where [5] appears, read: activity of the variant/activity of Rd7BB (SEQ ID NO: 44).
The mark [6] stands for this setting: activity of the variant/activity of Rd2BB (SEQ ID NO: 10), yeast culture supernatant.

Substitutions are numbered along the chain they refer to.

B1: 653 (protein)
chain: LDNGLARTPPMGWLHWERFMCNLDCQEEPDSCISEKLFMEMAERMVTEGWKDAGYEYLCIDDCWMAPQRDSEGRLQADPQRFPHGIRQLANHVHSKGLKLGIYADVGNKTCAGFPGSFGYYDIDAQTFADWGVDLLKFDGCYCDSLENLADGYKHMSLALNRTGRPIVYSCEWPLYMWPFQKPNYTEIRQYCNHWRNFADIDDSWASIKSILDWTSRNQERIVDVAGPGGWNDPDMLVIGNFGLSPDQQVTQMALWAIMAAPLFMSNDLRAISPQAKALLQDKDVIAINQDPLGKQGYQLRKGDNFEVWERPLSGDAWAVAIINRQEIGGPRSYTIPVASLGKGVACNPACFITQLLPVKRQLGFYNWTSRLKSHINPTGTVLLQLENTMQTSLKDLL
modifications: Synthetic Polypeptide sequence of Variant No. 653 of mature Human GLA
With B1, the “Relative Activity of GLA Variants After Challenge at pH 7.5” value (shortened to “Relative Activity … at pH 7.5”) in series [1] is “+ (>0.5 to 1.5 relative activity over Rd7BB (SEQ ID NO: 44))”. For the same molecule, the “Relative Activity of GLA Variants After Challenge at pH 3.5” value (“Relative Activity … at pH 3.5” below) in series [2] is “+ (>0.5 to 1.5 relative activity over Rd7BB (SEQ ID NO: 44))”. Also, the “Relative Activity of GLA Variants After No Challenge (NC)” value in series [3] (setting [5]) was “+ (>0.5 to 1.5 relative activity over Rd7BB (SEQ ID NO: 44))”.

B2: 658 (protein)
chain: B1 chain with P10T, M39E
modifications: Synthetic Polypeptide sequence of Variant No. 658 of mature Human GLA
With B2, in series [1], the “Relative Activity … at pH 7.5” value is “+ (>0.5 to 1.5 relative activity over Rd7BB (SEQ ID NO: 44))”. In series [2], the “Relative Activity … at pH 3.5” value is “+ (>0.5 to 1.5 relative activity over Rd7BB (SEQ ID NO: 44))”. Besides, the “Relative Activity of GLA Variants After No Challenge (NC)” value in series [3] (setting [5]) is reported as “+ (>0.5 to 1.5 relative activity over Rd7BB (SEQ ID NO: 44))”.

B3: 656 (protein)
chain: B1 chain with A261G
modifications: Synthetic Polypeptide sequence of Variant No. 656 of mature Human GLA
As for B3, the “Relative Activity … at pH 7.5” value in series [1] is recorded as “+ (>0.5 to 1.5 relative activity over Rd7BB (SEQ ID NO: 44))”. The “Relative Activity … at pH 3.5” value in series [2] is listed as “+ (>0.5 to 1.5 relative activity over Rd7BB (SEQ ID NO: 44))”. In series [3] (setting [5]), the “Relative Activity of GLA Variants After No Challenge (NC)” value is given as “+ (>0.5 to 1.5 relative activity over Rd7BB (SEQ ID NO: 44))”.

B4: 659 (protein)
chain: B1 chain with P10T, W64L, P246W
modifications: Synthetic Polypeptide sequence of Variant No. 659 of mature Human GLA
As to B4, the “Relative Activity … at pH 7.5” value in series [1] is “− (<0.5 relative activity to Rd7BB (SEQ ID NO: 44))”. In addition, the “Relative Activity … at pH 3.5” value in series [2] was “− (<0.5 relative activity to Rd7BB (SEQ ID NO: 44))”. The “Relative Activity of GLA Variants After No Challenge (NC)” value in series [3] (setting [5]) is “− (<0.5 relative activity to Rd7BB (SEQ ID NO: 44))”.

B5: 655 (protein)
chain: B1 chain with P10T, A261G, N305L, W368A
modifications: Synthetic Polypeptide sequence of Variant No. 655 of mature Human GLA
As for B5, in series [1], the “Relative Activity … at pH 7.5” value is “− (<0.5 relative activity to Rd7BB (SEQ ID NO: 44))”. Further, in series [2], the “Relative Activity … at pH 3.5” value is reported as “− (<0.5 relative activity to Rd7BB (SEQ ID NO: 44))”. The “Relative Activity of GLA Variants After No Challenge (NC)” value in series [3] (setting [5]) is “+ (>0.5 to 1.5 relative activity over Rd7BB (SEQ ID NO: 44))”.

B6: 654 (protein)
chain: B1 chain with R7S, P10T, P246W
modifications: Synthetic Polypeptide sequence of Variant No. 654 of mature Human GLA
Take B6: in series [1], the “Relative Activity … at pH 7.5” value is on record as “+ (>0.5 to 1.5 relative activity over Rd7BB (SEQ ID NO: 44))”. Further, the “Relative Activity … at pH 3.5” value in series [2] was “+ (>0.5 to 1.5 relative activity over Rd7BB (SEQ ID NO: 44))”. The “Relative Activity of GLA Variants After No Challenge (NC)” value in series [3] (setting [5]) is “+ (>0.5 to 1.5 relative activity over Rd7BB (SEQ ID NO: 44))”.

B7: 638 (protein)
chain: B1 chain with P246W, A261G
modifications: Synthetic Polypeptide sequence of Variant No. 638 of mature Human GLA
Turning to B7, the “Relative Activity … at pH 7.5” value in series [1] was “− (<0.5 relative activity to Rd7BB (SEQ ID NO: 44))”. The “Relative Activity … at pH 3.5” value in series [2] was “− (<0.5 relative activity to Rd7BB (SEQ ID NO: 44))”. In series [3] (setting [5]), the “Relative Activity of GLA Variants After No Challenge (NC)” value is given as “− (<0.5 relative activity to Rd7BB (SEQ ID NO: 44))”.

B8: 657 (protein)
chain: B1 chain with P10T, P67T, K182N, P246W
modifications: Synthetic Polypeptide sequence of Variant No. 657 of mature Human GLA
Take B8: in series [1], the “Relative Activity … at pH 7.5” value is “+ (>0.5 to 1.5 relative activity over Rd7BB (SEQ ID NO: 44))”. The “Relative Activity … at pH 3.5” value in series [2] is “+ (>0.5 to 1.5 relative activity over Rd7BB (SEQ ID NO: 44))”. Further, the “Relative Activity of GLA Variants After No Challenge (NC)” value in series [3] (setting [5]) was “+ (>0.5 to 1.5 relative activity over Rd7BB (SEQ ID NO: 44))”.

B9: 237 (protein)
chain: LDNGLARTPTMGWLHWERFMCNLDCQEEPDSCISEKLFMEMAELMVSEGWKDAGYEYLCIDDCWMAPQRDSEGRLQADPQRFPHGIRQLANYVHSKGLKLGIYADVGNKTCAGFPGSFGYYDIDAQTFADWGVDLLKFDGCYCDSLENLADGYKHMSLALNRTGRSIVYSCEWPLYMWPFQKPNYTEIRQYCNHWRNFADIDDSWASIKSILDWTSRNQERIVDVAGPGGWNDPDMLVIGNFGLSWNQQVTQMALWAIMAAPLFMSNDLRHISPQAKALLQDKDVIAINQDPLGKQGYQLRKGDNFEVWERPLSGDAWAVAMINRQEIGGPRSYTIPVASLGKGVACNPGCFITQLLPVKRKLGFYDWDSRLRSHINPTGTVLLQLENTMQMSLKDLL
modifications: Synthetic Polypeptide sequence of Variant No. 237 of mature Human GLA
Turning to B9, the “Relative Activity of GLA Variants After Challenge at pH 7.6” value in series [1] is “+++ (+++ = >2.5 relative activity over Rd2BB (SEQ ID NO: 10))”. Further, the “Relative Activity of GLA Variants After Challenge at pH 4.2” value in series [2] is “+++ (+++ = >2.5 relative activity over Rd2BB (SEQ ID NO: 10))”. Moreover, the “Relative Activity of GLA Variants After No Challenge (NC)” value in series [3] (setting [6]) is on record as “+++ (+++ = >2.5 relative activity over Rd2BB (SEQ ID NO: 10))”. In addition, the “Relative Activity of GLA Variants After Challenge with Serum” value in series [4] is “+++ (+++ = >2.5 relative activity over Rd2BB (SEQ ID NO: 10))”.

B10: 238 (protein)
chain: LDNGLARTPTMGWLHWERFMCNLDCQEEPDSCISEKLFMEMAELMVSEGWKDAGYEYLCIDDCWMAPQRDSEGRLQADPQRFPHGIRQLANYVHSKGLKLGIYADVGNKTCAGFPGSFGYYDIDAQTFADWGVDLLKFDGCYCDSLENLADGYKHMSLALNRTGRSIVYSCEWPLYMWPFQKPNYTEIRQYCNHWRNFADIDDSWASVKSILDWTSFNQERIVDVAGPGGWNDPDMLVIGNFGLSWNQQVTQMALWAIMAAPLFMSNDLRHISPQAKALLQDKDVIAINQDPLGKQGYQLRQGDNFEVWERPLSGLAWAVAVINRQEIGGPRSYTIAVASLGGGVACNPACFITQLLPVKRKLGLYEWTSRLKSHVNPTGTVLLQLENTMQMSLKDLL
modifications: Synthetic Polypeptide sequence of Variant No. 238 of mature Human GLA
For B10, the “Relative Activity of GLA Variants After Challenge at pH 7.6” value in series [1] is “+++ (+++ = >2.5 relative activity over Rd2BB (SEQ ID NO: 10))”. In addition, the “Relative Activity of GLA Variants After Challenge at pH 4.2” value in series [2] is given as “+++ (+++ = >2.5 relative activity over Rd2BB (SEQ ID NO: 10))”. For the same molecule, in series [3] (setting [6]), the “Relative Activity of GLA Variants After No Challenge (NC)” value is reported as “++ (++ = 1.5 to 2.5 relative activity over Rd2BB (SEQ ID NO: 10))”. Also, the “Relative Activity of GLA Variants After Challenge with Serum” value in series [4] is recorded as “++ (++ = 1.5 to 2.5 relative activity over Rd2BB (SEQ ID NO: 10))”.

For the origin of these results see patent US11278600B2, “Human alpha-galactosidase variants” (Codexis, Inc., priority 2014, dated 2022).
